According to publication PMC7069927, “Amyloid formation of bovine insulin is retarded in moderately acidic pH and by addition of short-chain alcohols” (European Biophysics Journal, 2020):
Like-named read-outs stand apart in the source and are kept apart here. Blank lines part the entries; values can stand above or below the compound they belong to.

How the values were obtained:
bovine insulin = biological target: T1, bovine insulin (Bos taurus, UniProt P01317); assay: Effect of short-chain alcohols on insulin fibrillation kinetics (ThT) at pH 4.0; conditions: ammonium acetate buffer pH 4.0, ThT, 60 °C; for retardation of insulin fibril formation (half-time) at the most effective alcohol:buffer mixing ratio: quiescent, triplicate, alcohol range 0-50% v/v; for alcohol concentration of maximal retarding effect: volume fraction
T1 construct: 51 amino acid residues, distributed over two polypeptide chains (A and B) that are interconnected by disulphide bridges; purchased Sigma-Aldrich I5500
Experimental: (§1) Aggregation kinetics was monitored by ThT fluorescence in a Fluostar Omega or Fluostar Optima fluorescence plate reader (BMG Labtech, Ortenberg, Germany) at 60 °C without shaking. Samples were deposited in 100 μl triplicate in black half-area 96-well microtiter plates with transparent bottoms (Corning #3881), and the plates were sealed with plastic film (Bio-Rad Laboratories, Hercules, CA, U.S.) to avoid sample evaporation. ThT fluorescence emission was detected using bottom optics, a 440 ± 10 nm band pass excitation filter, and a 485 ± 12 nm band pass emission filter. The ThT concentration was 7.2 μM in all experiments.
To mimic conditions relevant to industrial purification of insulin, we investigated the effect of three short-chain alcohols (methanol, ethanol and isopropanol) on insulin aggregation in ammonium acetate buffer. We monitored ThT kinetics as function of increasing concentration (range: 0–50% v/v) of each alcohol (Fig. 5a–c). […] Methanol is apparently a weaker modulator (it retards fibril formation by ~ 2 times); higher concentrations (40%) are also needed to reach maximal effect.

[1] = centrifuged 13,400 rpm 15 min, absorption 280 nm
Experimental: The solubility of insulin as function of pH was estimated by preparing insulin solutions with varying pH at a concentration of 1 mg/ml. The solutions were centrifuged at 13,400 rpm in an Eppendorf Minispin tabletop centrifuge (Eppendorf, Hamburg, Germany) for 15 min to pellet non-dissolved insulin. The solubility was estimated by measuring the insulin concentration in the supernatant by absorption (see above). The same strategy was used to determine fibril formation yields at different pH values, using pre-formed fibrils as starting material.

[2] = Thioflavin-T kinetic assay of insulin amyloid formation; type: physicochemical, bovine; conditions: 64 μM insulin, 60 °C, quiescent; for half-time of amyloid formation: ThT 7.2 μM
Experimental: as §1
We set up thioflavin-T kinetic assays to monitor the aggregation of bovine insulin in microtitre plates at 60 °C and under quiescent conditions, initially at pH 2.2 to establish a reproducible method, then extending to pH 7.0 to reflect native conditions. The resulting kinetic curves (presented as normalized ThT fluorescence) are presented in Fig. 1a, b; each condition was analysed in triplicate and all curves are shown. The aggregation rate of bovine insulin increases with increase in monomer concentration at pH 2.2 (Fig. 1a), which is intuitively expected and also consistent with many previous studies (see for example Brange and Langkjoer [1993]; Nielsen et al. [2001]). […] The scaling component, i.e. the slope of the fitted straight line to the half-time data, for insulin aggregation kinetics at pH 2.2 is − 1.02, which is consistent with a nucleation-dependent aggregation mechanism (Meisl et al. [2016]). […] This is, from an amyloid formation point of view, an anomalous behaviour that can be explained by that insulin, in addition to existing as a monomer, populates higher-order oligomeric states that are resilient to amyloid formation; or interfere with fibril elongation (Ziaunys et al. [2018]). These higher-order states can be significant, or even predominant, at pH 7.0 despite that no stabilizing zinc was added (Ziaunys et al. [2018]; Waugh et al. [1953]; Goldman and Carpenter, [1974]).

[3] = ref Wintersteiner and Abramson [1933]; cited from earlier work
[4] = AFM imaging of the end point of the fibrillation reaction; type: physicochemical, bovine; conditions: aggregated in ammonium acetate pH 4.0 in presence of 30% (vol/vol) EtOH; on mica
Experimental: For atomic force microscopy, fibrillar insulin was deposited on freshly cleaved mica and left to settle for 5 min, after which the mica plates were rinsed with milli-Q water and dried under a gentle stream of nitrogen. AFM images were recorded on an NTEGRA Prima setup (NT-MDT, Moscow, Russian Federation) equipped with a gold-coated single crystal silicon cantilever (NSG-01, spring constant ~ 5.1 N/m, resonance frequency of ~ 150 kHz). The images were processed in the Gwyddion software package (Nečas and Klapetek [2012]) using planar subtraction, polynomial background subtraction and correction for linear aberrations. For fluorescence microscopy, 150 µl of insulin solution was placed on positively charged glass (Thermo Scientific, Waltham, MA, USA) and sealed with a 18 × 18 mm coverslip. A Zeiss AxioObserver.Z1 inverted fluorescence microscope (Carl Zeiss AG, Oberkochen, Germany) with a 100 × oil immersion objective (NA = 1.46) was used in combination with a Photometrics Evolve EMCCD camera (Photometrics, Tuscon, AZ, USA), 100 ms exposure time, to obtain the images of the samples.
This is probably due to ThT’s fluorescence being sensitive both to ThT binding affinity and to the quantum yield of each bound dye molecule (Lindberg et al.[2015], [2017]). […]

[5] = Fibril formation yield (centrifugation to sediment amyloid fibrils); type: physicochemical, bovine
Experimental: The fibril yields for the reactions shown in Fig. 1 were estimated by centrifugation experiments to sediment amyloid fibrils formed at a starting concentration of 58 μM insulin. […] We also used centrifugation to sediment insoluble insulin in 1 mg/ml solutions to investigate the solubility across a range of buffers with different pH values (Fig. 1d).

T1 sequence (P01317 25-54 limits assumed): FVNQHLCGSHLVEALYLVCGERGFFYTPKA
T1 sequence (P01317 85-105 limits assumed): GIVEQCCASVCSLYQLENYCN

Compound: CO [Methanol, methanol]
retardation of insulin fibril formation (half-time) at the most effective alcohol:buffer mixing ratio (bovine insulin): ~ 2 times
alcohol concentration of maximal retarding effect (bovine insulin): 40%

Compound: Bovine insulin
insulin solubility ([1]; across most of the assayed pH range except pH 5.0-6.0, 1 mg/ml (172 μM), pre-dissolved in 100 mM HCl): high
insulin solubility ([1]; pH 4.0, 1 mg/ml): solubility remains high
insulin solubility ([1]; pH 5.0-6.0, close to pI, 1 mg/ml): low solubility
half-time of amyloid formation ([2]; ammonium acetate buffer (200 mM) pH 4.0, printed 'ammonium phosphate', triplicate): 7.7 ± 0.8 h
half-time of amyloid formation ([2]; citrate-phosphate buffer pH 4.0, triplicate): 6.5 ± 0.1 h
slowing of amyloid formation kinetics as measured by half-time of fibril formation ([2]; pH 4.0 compared with pH 3.0 or pH 7.0, citrate-phosphate buffer, ThT, triplicate): ~ 50%
amyloid formation ([2]; pH 5.0-6.0, citrate-phosphate buffer, ThT, no reliable half-times within assayed time range): strongly inhibited
isoelectric point (pI) [3]: 5.3
size of oligomeric particles at end point of fibrillation (AFM) [4]: 2–3 nm
fibril yield ([5]; pH 2.2, starting concentration 58 μM insulin, absorption of supernatant): 91 ± 8%
fibril yield ([5]; pH 4.0, absorption of supernatant): > 99.5%
fibril yield ([5]; pH 7.0, starting concentration 58 μM insulin, absorption of supernatant, n = 3): 90 ± 5%

retardation of insulin fibril formation (half-time) at the most effective alcohol:buffer mixing ratio (bovine insulin): three to four
alcohol concentration of maximal retarding effect (bovine insulin): 30–35%
Compound: CCO [Ethanol, ethanol]

retardation of insulin fibril formation (half-time) at the most effective alcohol:buffer mixing ratio (bovine insulin): three to four
alcohol concentration of maximal retarding effect (bovine insulin): 30–35%
Compound: CC(C)O [isopropanol]
